T1: mouse CD122 (mouse, UniProt P16297 27-240, limits assumed)
T1 sequence (looked up): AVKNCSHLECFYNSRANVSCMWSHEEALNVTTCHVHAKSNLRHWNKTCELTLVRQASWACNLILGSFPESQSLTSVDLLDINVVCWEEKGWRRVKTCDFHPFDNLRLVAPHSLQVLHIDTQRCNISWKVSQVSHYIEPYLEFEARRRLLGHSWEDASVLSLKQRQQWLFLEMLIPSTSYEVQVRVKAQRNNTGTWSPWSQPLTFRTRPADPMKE


Columns and labels:
human CD122 (human) = human CD122 (human) (UniProt P14784); test: cell-based or functional assay
mouse CD122 = biological target: T1, mouse CD122; test: assay not specified

human CD122 (human), sequence (P14784 27-551): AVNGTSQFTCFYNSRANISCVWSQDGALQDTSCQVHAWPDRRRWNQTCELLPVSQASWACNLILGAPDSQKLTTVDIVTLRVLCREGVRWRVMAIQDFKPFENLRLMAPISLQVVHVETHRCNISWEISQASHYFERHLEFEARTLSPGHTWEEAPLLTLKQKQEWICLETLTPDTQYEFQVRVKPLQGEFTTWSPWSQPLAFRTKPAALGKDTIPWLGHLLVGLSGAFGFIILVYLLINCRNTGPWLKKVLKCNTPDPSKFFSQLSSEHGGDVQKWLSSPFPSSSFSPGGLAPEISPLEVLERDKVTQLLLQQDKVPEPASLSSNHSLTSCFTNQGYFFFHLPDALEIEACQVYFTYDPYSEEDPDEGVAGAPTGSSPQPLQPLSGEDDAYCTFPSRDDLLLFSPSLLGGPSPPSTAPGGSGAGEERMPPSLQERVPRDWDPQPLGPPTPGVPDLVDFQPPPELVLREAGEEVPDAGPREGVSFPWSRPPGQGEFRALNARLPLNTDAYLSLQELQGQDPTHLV

| Molecule | antibody concentration required for 50% inhibition of proliferation mediated by trans-presentation of IL-15 to TF-1β cells (human CD122 (human)) [µg/mL] | binding result (mouse CD122) |
| --- | --- | --- |
| HuMik-β1 (antibody) | 10 | – |
| ABC101 (antibody, mouse IgG2b, V domains shown, Mouse IgG2b/kappa purified from hybridoma; also called mouse anti-human CD122 monoclonal antibody ABC101) VH: DVQLQESGPGLVKPSQTVSLTCTVTGYSITNDNHWWNWIRQVSGSKLEWMGYIDSSGSSDNNPSLKSQISITRDTSKNQLFLQLNSVTIEDIGTYYCARGGGRDYYGMDYWGQGTSVTVSS VL: DIVLTQSPASLAVSLGQRATISCRASQSVSTSSYSYVHWYQQKPGQPPKLLIKYASNLESGVPARFSGSGSGTDFTLNIHPVEEEDTATYYCQHSWDIPFTFGGGTKLEIK | – | no binding |
| ABC2 (antibody, mouse IgG1, V domains shown, Mouse IgG1/kappa purified from hybridoma; also called mouse anti-human CD122 monoclonal antibody ABC2) VH: EVKLVESGGGLVQPGGSLRLSCATSGFTFSDFYMEWVRQPPGKRLEWIAASRNKANDYTTEYSASVKGRFIVSRDTSQSILYLQMNALRAEDTAIYYCARSYYRYDGMDYWGQGTSVTVSS VL: QVVLTQSPVIMSASPGEKVTMTCSAISSVSYMYWYQQKPGSSPRLLIYDTSNLVSGVPVRFSGSGSGTSYSLTISRMEAEDAATYYCQQWNTYPYTFGGGTKLEIK | – | no binding |

Reference: patent US20110250213A1 (JN BIOSCIENCES, published 2011)
